Data: the Immune Epitope Database (IEDB)

Key:
[1] = target: HLA-B*07:02; experiment: IEDB peptide-MHC binding, purified MHC/direct/fluorescence; filed as Kd, often an IC50 or EC50 that approximates it; ≥ and ≤ were set here for values at or beyond the usual limits of such assays
[2] = target: HLA-B*15:01; experiment: as above
[3] = target: HLA-C*05:01; experiment: as above
[4] = target: HLA-C*04:01; experiment: as above; settings: source organism: Rickettsia sibirica 246
[5] = target: HLA-B*51:01; experiment: as above; settings: source organism: Rickettsia conorii
[6] = target: HLA-B*58:01; experiment: IEDB peptide-MHC binding, purified MHC/competitive/fluorescence; ≥ and ≤ were set here for values at or beyond the usual limits of such assays; settings: source organism: Homo sapiens
[7] = target: HLA-B*51:01; experiment: as above; settings: source organism: Homo sapiens
[8] = target: HLA-B*48:01; experiment: IEDB peptide-MHC binding, purified MHC/competitive/fluorescence; filed as Kd, often an IC50 or EC50 that approximates it; ≥ and ≤ were set here for values at or beyond the usual limits of such assays; settings: source organism: Yersinia pestis Nepal516
[9] = target: HLA-A*01:01; experiment: IEDB peptide-MHC binding, purified MHC/direct/fluorescence; filed as Kd, often an IC50 or EC50 that approximates it; ≥ and ≤ were set here for values at or beyond the usual limits of such assays; settings: source organism: Camelpox virus CMS
[10] = target: HLA-A*03:01; experiment: as above; settings: source organism: Camelpox virus CMS
[11] = target: HLA-B*58:01; experiment: as above; settings: source organism: Camelpox virus CMS
[12] = target: HLA-B*27:05; experiment: as above; settings: source organism: Camelpox virus CMS
[13] = target: HLA-B*40:01; experiment: as above; settings: source organism: Camelpox virus CMS
[14] = target: HLA-B*48:01; experiment: as above; settings: source organism: Camelpox virus CMS
[15] = target: HLA-A*69:01; experiment: as above; settings: source organism: Camelpox virus CMS
[16] = target: HLA-B*46:01; experiment: as above; settings: source organism: Camelpox virus CMS
[17] = target: HLA-A*31:01; experiment: as above; settings: source organism: Camelpox virus CMS
[18] = target: HLA-A*11:01; experiment: as above; settings: source organism: Camelpox virus CMS
[19] = target: HLA-B*57:01; experiment: as above; settings: source organism: Camelpox virus CMS
[20] = target: HLA-B*18:01; experiment: as above; settings: source organism: Camelpox virus CMS
[21] = target: HLA-A*02:01; experiment: IEDB peptide-MHC binding, purified MHC/competitive/fluorescence; filed as Kd, often an IC50 or EC50 that approximates it; ≥ and ≤ were set here for values at or beyond the usual limits of such assays
[22] = target: HLA-B*15:17; experiment: as above
[23] = target: HLA-A*68:02; experiment: as above; settings: source organism: Variola virus
[24] = target: HLA-A*26:03; experiment: as above; settings: source organism: Variola virus
[25] = target: HLA-A*03:01; experiment: as above; settings: source organism: Escherichia coli O139:H28 str. E24377A
[26] = target: HLA-B*15:01; experiment: as above
[27] = target: HLA-A*26:01; experiment: as above; settings: source organism: Escherichia coli O139:H28 str. E24377A
[28] = target: HLA-B*39:01; experiment: as above; settings: source organism: Escherichia coli O139:H28 str. E24377A
[29] = target: HLA-A*80:01; experiment: as above; settings: source organism: Escherichia coli O139:H28 str. E24377A
[30] = target: HLA-B*51:01; experiment: as above
[31] = target: HLA-A*29:02; experiment: as above; settings: source organism: Escherichia coli O139:H28 str. E24377A
[32] = target: HLA-A*25:01; experiment: as above; settings: source organism: Escherichia coli O139:H28 str. E24377A
[33] = target: HLA-B*57:01; experiment: as above; settings: source organism: Escherichia coli O139:H28 str. E24377A
[34] = target: HLA-B*27:03; experiment: as above; settings: source organism: Escherichia coli O139:H28 str. E24377A
[35] = target: HLA-B*18:01; experiment: as above; settings: source organism: Escherichia coli O139:H28 str. E24377A
[36] = target: HLA-A*02:12; experiment: as above; settings: source organism: Escherichia coli O139:H28 str. E24377A
[37] = target: HLA-B*07:02; experiment: as above; settings: source organism: Escherichia coli 536
[38] = target: HLA-B*08:01; experiment: as above; settings: source organism: Escherichia coli 536
[39] = target: HLA-C*12:03; experiment: IEDB peptide-MHC binding, purified MHC/direct/fluorescence; filed as Kd, often an IC50 or EC50 that approximates it; ≥ and ≤ were set here for values at or beyond the usual limits of such assays; settings: source organism: human gammaherpesvirus 4
[40] = target: HLA-B*15:42; experiment: IEDB peptide-MHC binding, purified MHC/competitive/fluorescence; filed as Kd, often an IC50 or EC50 that approximates it; ≥ and ≤ were set here for values at or beyond the usual limits of such assays; settings: source organism: human gammaherpesvirus 4
[41] = target: HLA-C*06:02; experiment: as above; settings: source organism: human gammaherpesvirus 4
[42] = target: HLA-B*83:01; experiment: as above; settings: source organism: human gammaherpesvirus 4
[43] = target: HLA-B*45:06; experiment: as above; settings: source organism: human gammaherpesvirus 4
[44] = target: HLA-A*32:15; experiment: as above; settings: source organism: human gammaherpesvirus 4
[45] = target: HLA-A*68:23; experiment: as above; settings: source organism: human gammaherpesvirus 4
[46] = target: HLA-B*40:13; experiment: as above; settings: source organism: human gammaherpesvirus 4
[47] = target: HLA-C*14:02; experiment: as above; settings: source organism: human gammaherpesvirus 4
[48] = target: HLA-B*27:20; experiment: as above; settings: source organism: human gammaherpesvirus 4
[49] = source organism: Rickettsia sibirica 246
[50] = source organism: Camelpox virus CMS
[51] = source organism: Escherichia coli O139:H28 str. E24377A
[52] = source organism: Escherichia coli 536

Sequence: FADSDNIAM
- Kd ([1]; source organism: Rickettsia conorii): ≥ 20 µM
- Kd [2, 49]: ≥ 20 µM
- Kd [3, 49]: ≤ 0.001 µM
- Kd [4]: ≥ 20 µM
- Kd [5]: ≥ 20 µM

Sequence: MASSPTSI
- IC50 [6]: 0.987 µM
- IC50 [7]: 1.52 µM

Sequence: RMAMIPRTL
- Kd [8]: 0.0873 µM

Sequence: RVFDKADGK
- Kd [9]: ≥ 20 µM
- Kd [10]: 0.0788 µM
- Kd [11]: ≥ 20 µM
- Kd [12]: ≥ 20 µM
- Kd [13]: ≥ 20 µM
- Kd [1, 50]: ≥ 20 µM
- Kd [2, 50]: ≥ 20 µM
- Kd [14]: ≥ 20 µM
- Kd [15]: ≥ 20 µM
- Kd [16]: ≥ 20 µM
- Kd [17]: 0.0997 µM
- Kd [18]: 0.127 µM
- Kd [19]: ≥ 20 µM
- Kd [20]: ≥ 20 µM
- Kd ([21]; source organism: Variola virus): 1.05 µM
- Kd ([22]; source organism: Variola virus): ≥ 20 µM
- Kd [23]: ≥ 20 µM
- Kd [24]: ≥ 20 µM

Sequence: SIPFGLMSA
- Kd [21, 51]: ≥ 20 µM
- Kd [25]: ≥ 20 µM
- Kd [22, 51]: ≥ 20 µM
- Kd [26, 51]: ≥ 20 µM
- Kd [27]: ≥ 20 µM
- Kd [28]: ≥ 20 µM
- Kd [29]: ≥ 20 µM
- Kd [30, 51]: ≥ 20 µM
- Kd [31]: ≥ 20 µM
- Kd [32]: ≥ 20 µM
- Kd [33]: ≥ 20 µM
- Kd [34]: ≥ 20 µM
- Kd [35]: ≥ 20 µM
- Kd [36]: 0.881 µM

Sequence: SPLHVFVAV
- Kd [37]: 0.0512 µM
- Kd [26, 52]: ≥ 20 µM
- Kd [30, 52]: 3.66 µM
- Kd [38]: ≥ 20 µM

Sequence: YAMAIRQAI
- Kd [39]: ≤ 0.001 µM
- Kd ([3]; source organism: human gammaherpesvirus 4): 2.23 µM
- Kd [40]: ≥ 5 µM
- Kd [41]: 0.101 µM
- Kd [42]: 1.02 µM
- Kd [43]: ≥ 5 µM
- Kd [44]: 0.092 µM
- Kd [45]: 0.19 µM
- Kd [46]: 0.0239 µM
- Kd [47]: 0.0426 µM
- Kd [48]: 0.0299 µM
